Measured values: patent publication US20250206813A1 (NVH MEDICINAL, published 2025)

T1: PCPE-1 (Procollagen C-proteinase enhancer-1) glycoprotein, human (human, UniProt Q15113 26-449)
T1 construct: mature; Secreted recombinant protein; also called purified human PCPE-1
T1 sequence (looked up): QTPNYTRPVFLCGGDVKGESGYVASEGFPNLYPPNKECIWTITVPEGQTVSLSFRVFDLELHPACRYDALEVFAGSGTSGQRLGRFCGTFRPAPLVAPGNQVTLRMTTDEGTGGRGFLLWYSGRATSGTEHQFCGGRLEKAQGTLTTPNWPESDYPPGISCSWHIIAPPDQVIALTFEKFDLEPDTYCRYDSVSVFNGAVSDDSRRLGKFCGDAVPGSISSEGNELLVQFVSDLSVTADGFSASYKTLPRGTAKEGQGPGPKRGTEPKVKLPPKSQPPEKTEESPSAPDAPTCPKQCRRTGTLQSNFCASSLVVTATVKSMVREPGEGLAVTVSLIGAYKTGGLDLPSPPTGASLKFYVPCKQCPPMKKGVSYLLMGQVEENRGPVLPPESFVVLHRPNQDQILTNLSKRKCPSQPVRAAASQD

T2: CUB2 domain of PCPE-1 (human, UniProt Q15113 159-273)
T2 construct: domain: CUB2
T2 sequence (looked up): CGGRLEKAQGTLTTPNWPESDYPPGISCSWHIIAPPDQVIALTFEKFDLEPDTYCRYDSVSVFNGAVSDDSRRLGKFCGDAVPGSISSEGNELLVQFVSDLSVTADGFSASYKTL

T3: CUB1 domain of PCPE-1 (human, UniProt Q15113 37-149)
T3 construct: domain: CUB1
T3 sequence (looked up): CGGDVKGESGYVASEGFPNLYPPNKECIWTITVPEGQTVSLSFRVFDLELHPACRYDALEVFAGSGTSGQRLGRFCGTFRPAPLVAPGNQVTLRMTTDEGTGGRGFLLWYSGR

T4: PCPE-2 (with a 6-his N-terminal tag) (UniProt Q9UKZ9 24-415)
T4 construct: not shown: N-terminal 6-His tag
T4 sequence (looked up): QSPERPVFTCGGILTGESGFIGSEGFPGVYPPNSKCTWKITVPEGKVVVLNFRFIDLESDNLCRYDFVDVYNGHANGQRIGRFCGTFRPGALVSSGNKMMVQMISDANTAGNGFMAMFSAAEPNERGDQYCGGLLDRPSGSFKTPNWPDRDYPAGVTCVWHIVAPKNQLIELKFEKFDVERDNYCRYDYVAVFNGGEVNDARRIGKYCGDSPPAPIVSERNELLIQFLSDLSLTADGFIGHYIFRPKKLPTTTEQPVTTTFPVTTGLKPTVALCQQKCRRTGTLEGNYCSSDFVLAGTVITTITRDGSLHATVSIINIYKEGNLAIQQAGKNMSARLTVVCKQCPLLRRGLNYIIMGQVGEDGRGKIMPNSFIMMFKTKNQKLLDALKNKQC


Tests used:
[1] = target: T1, PCPE-1 (Procollagen C-proteinase …); assay: SPR, VHH injected on immobilized PCPE-1
CUB2 domain of PCPE-1 = target: T2, CUB2 domain of PCPE-1; assay: SPR competition: VHH (50 nM) co-injected with the soluble CUB2 domain (250 nM) over immobilized PCPE-1
CUB1 domain of PCPE-1 = target: T3, CUB1 domain of PCPE-1; assay: SPR competition: VHH (50 nM) co-injected with the soluble CUB1 domain (250 nM) over immobilized PCPE-1
[2] = target: T1, PCPE-1 (Procollagen C-proteinase …); assay: SPR, biotinylated VHH on streptavidin chip; reference PCPE-2
Method: (§1) FIG. 2D: VHHs […] is biotinylated and immobilized on a streptavidin chip (813 RU), then increasing concentrations of PCPE-1 (black) or PCPE-2 (grey) are injected.
(§2) FIG. 2E: VHH H4 is biotinylated and immobilized on a streptavidin chip (491 RU), then increasing concentrations of PCPE-1 or PCPE-2 are injected. [0038] D, E: Interactions are modeled (dotted line) using the Langmuir model (Biacore T200 Evaluation software, Cytiva)
(§3) PCPE-2 is a protein in the same family as PCPE-1, with a 43% identical amino acid sequence. It shares certain activities with PCPE-1, but also has very different specific functions. The specificity of nanobody interaction for PCPE-1 versus PCPE-2 was analyzed by SPR. To achieve this, VHH-I5 and VHH-H4 were biotinylated at their C-terminus using sortase, then immobilized on a streptavidin surface. […] The affinity of VHH-I5 and -H4 for PCPE-1 is therefore at least 250 times greater than for PCPE-2.

[3] = target: T4, PCPE-2 (with a 6-his N-terminal tag); assay: SPR, biotinylated VHH on streptavidin chip, PCPE-2 injected
Method: as §1, §2, §3

[4] = target: T1, PCPE-1 (Procollagen C-proteinase …); assay: SPR, biotinylated VHH on streptavidin chip, PCPE-1 injected, 1:1 binding model
Method: as §1, §2, §3

[5] = target: T1, PCPE-1 (Procollagen C-proteinase …); assay: SPR competition: PCPE-1 (5 nM) co-injected with VHH on immobilized Mini III; VHH-I5 alone, 5 nM PCPE-1
Method: (§4) Surface plasmon resonance (SPR) experiments were carried out on a Biacore T200 (Cytiva). The ligand proteins, in solution in 10 mM HEPES pH 7.4 buffer for PCPE-1 or 10 mM sodium acetate pH 4.5 buffer for mini-procollagen III and streptavidin, are immobilized on CM5 chips by amine coupling. Analytes are diluted in running buffer (10 mM HEPES pH 7.4, 0.15 M NaCl, 5 mM CaCl₂), 0.05% P20) and injected at a flow rate of 30 or 50 μL/min. Competition, epitope binning and kinetics experiments were all carried out at 25° C. Regeneration was achieved by successive injection of 2 M guanidine chloride and 0.5 M EDTA for 30 sec. Sensorgrams were analyzed with Biacore T200 Evaluation v3.2.1 (Cytiva), using the most suitable models. IC50 was determined by non-linear regression using GraphPad Prism (v8.2.1).
(§5) What is more, their antagonistic effects are additive, and co-injection of a mixture of VHH-I5 and VHH-H4 with PCPE-1 virtually eliminates its interaction with Mini III.

[6] = target: T1, PCPE-1 (Procollagen C-proteinase …); assay: SPR competition: PCPE-1 (5 nM) co-injected with VHH on immobilized Mini III; VHH-H4 alone, 5 nM PCPE-1
Method: as §4, §5

| Kd [1] [nM] | Binder | also measured |
| --- | --- | --- |
| > 250 | VHH-H8 (VHH, Synthetic nanobody (hsd2ab library), pET29b(+) vector, pelB signal; not shown: C-terminal 6-His tag) VHH: EVQLQASGGGFVQPGGSLRLSCAASGYTSDLTVMGWFRQAPGKEREFVSAISSHFGPPHYYADSVKGRFTISRDNSKNTVYLQMNSLRAEDTATYYCAMRERRHSWWYWGQGTQVTVSS |  |
| 18 | VHH-H10 (VHH, Synthetic nanobody (hsd2ab library), pET29b(+) vector, pelB signal; not shown: C-terminal 6-His tag) VHH: EVQLQASGGGFVQPGGSLRLSCAASGYGWWIYEMGWFRQAPGKEREFVSAISWADGTRTYYADSVKGRFTISRDNSKNTVYLQMNSLRAEDTATYYCAIYILEGTQGVPIYWGQGTQVTVSS | binding result (CUB2 domain of PCPE-1): no binding (tested: 250 nM) |
| > 250 | VHH-H1 (VHH, Synthetic nanobody (hsd2ab library), pET29b(+) vector, pelB signal; not shown: C-terminal 6-His tag) VHH: EVQLQASGGGFVQPGGSLRLSCAASGRTWSFYAMGWFRQAPGKEREFVSAISWNGGGEHYYADSVKGRFTISRDNSKNTVYLQMNSLRAEDTATYYCAHMEFSQSDYIISKWIYWGQGTQVTVSS |  |
| 161 | VHH-I11 (VHH, Llama nanobody, pHEN6 vector, pelB signal, produced in E. coli periplasm; also called nanobody I11; not shown: C-terminal 6-His tag) VHH: QVQLVESGGGTVQAGGSLRLSCTASGRGRNAMGWYRQVPGGKRELVASINRGGTTDYTDSVKDRFTISRDSAKNTVYLQMDSLQPEDTAVYYCNAESTVIPGHIYDYWGRGTQVTVSS |  |
| 12.8 | VHH-I7 (VHH, Llama nanobody, pHEN6 vector, pelB signal, produced in E. coli periplasm; also called nanobody I7; 17; not shown: C-terminal 6-His tag) VHH: QVQLVESGGGLVPPGGSLKLSCTASGSIFSSNVMGWYRRAPGKQREWVASISRGGGTNYPDSVKGRFTVSRDIAKNTVYLQISSLKPEDTAVYYCNPIPYSGDYVSGQGTQVTVSS |  |
| 16 | VHH-I3 (VHH, Llama nanobody, pHEN6 vector, pelB signal, produced in E. coli periplasm; also called nanobody I3; 13; not shown: C-terminal 6-His tag) VHH: QVQLVESGGGLVEPGGSLRLSCAVSGSTFSMNVMGWYRQAPGKHREWVGSIGTGGGTNYPDSVKGRFTISRDNVKKTVYLQMNSLKPEDTAVYYCNKIPHNWGWGQGTQVTVSS | binding result (CUB1 domain of PCPE-1): no binding (tested: 250 nM) |
|  | VHH-I5 biotinylated at its C-terminus using sortase (VHH, C-terminal biotin (GGGK-biotin ligated by Sortase A at the LPETG site), pHEN vector with LPETG and 6-His; Captured on streptavidin; also called biotinylated VHH-I5; not shown: GGGK-biotin ligated by Sortase A in place of the 6-His label) VHH: QVQLVESGGGLVQPGGFLRLLCTASGNIFSSNTMGWYRRAPGKQREWVASISKGGSTNYADSVKDRFTISRSITKNTVYLQMVNLKPEDTAVYYCNPVPDSDNYASGQGTQVTVSS | fold affinity for PCPE-1 over PCPE-2 [2]: ≥ 250 fold; Kd [3]: > 1000 nM; Kd [4]: 1.45 nM; koff [4]: 0.00136 s⁻¹; kon [4]: 937000 M⁻¹ s⁻¹ |
| 7.2 | VHH-I5 (VHH, Llama nanobody, pHEN6 vector, pelB signal, produced in E. coli periplasm; also called nanobody-I5; 15; not shown: C-terminal 6-His tag) VHH: QVQLVESGGGLVQPGGFLRLLCTASGNIFSSNTMGWYRRAPGKQREWVASISKGGSTNYADSVKDRFTISRSITKNTVYLQMVNLKPEDTAVYYCNPVPDSDNYASGQGTQVTVSS | IC50 [5]: ~24 nM |
| 30 | VHH-H4 (VHH, Synthetic nanobody (hsd2ab library), pET29b(+) vector, pelB signal; also called nanobody-H4; not shown: C-terminal 6-His tag) VHH: EVQLQASGGGFVQPGGSLRLSCAASGFTSEISNMGWFRQAPGKEREFVSAISGTHTTQTYYADSVKGRFTISRDNSKNTVYLQMNSLRAEDTATYYCAAEQDMSDLWLGSYWGQGTQVTVSS | IC50 [6]: ~45 nM; binding result (CUB2 domain of PCPE-1): no binding (tested: 250 nM) |
|  | VHH-H4 biotinylated at its C-terminus using sortase (VHH, C-terminal biotin (GGGK-biotin ligated by Sortase A at the LPETG site), pHEN vector with LPETG and 6-His; Captured on streptavidin; also called biotinylated VHH-H4; biotinylated H4 nanobody; not shown: GGGK-biotin ligated by Sortase A in place of the 6-His label) VHH: EVQLQASGGGFVQPGGSLRLSCAASGFTSEISNMGWFRQAPGKEREFVSAISGTHTTQTYYADSVKGRFTISRDNSKNTVYLQMNSLRAEDTATYYCAAEQDMSDLWLGSYWGQGTQVTVSS | fold affinity for PCPE-1 over PCPE-2 [2]: ≥ 250 fold; Kd [3]: > 1000 nM; Kd [4]: 3.88 nM; koff [4]: 0.0195 s⁻¹; kon [4]: 5.04e+06 M⁻¹ s⁻¹ |
| > 250 | VHH-I4 (VHH, Llama nanobody, pHEN6 vector, pelB signal, produced in E. coli periplasm; also called nanobody I4; not shown: C-terminal 6-His tag) VHH: QVQLVESGGGSVAAGESLTLSCRMSGSTSSIQAMGWYRRAPGNQREWLATISPRGNTNYADSVKGRFTISRDNAKNTVYLQMNSLKPADTAVYYCNTVPSGGIPWGQGTQVTVSS |  |
| 154 | VHH-I2 (VHH, Llama nanobody, pHEN6 vector, pelB signal, produced in E. coli periplasm; also called nanobody I2; not shown: C-terminal 6-His tag) VHH: QVQLVESGGGWVQPGGSLRLSCAASGITFSTKTMGWYRQRPGKRREWIGSISPTGFTNYADAVKGRVTISRDNGENTVYLQMNSLKPEDTAVYFCNGVPPVIIDGQSVAYWGQGTQVTVSS |  |
| > 250 | VHH-H2 (VHH, Synthetic nanobody (hsd2ab library), pET29b(+) vector, pelB signal; not shown: C-terminal 6-His tag) VHH: EVQLQASGGGFVQPGGSLRLSCAASGSTSRDEGMGWFRQAPGKEREFVSAISRDHGWREYYADSVKGRFTISRDNSKNTVYLQMNSLRAEDTATYYCAPVIIDTMEVIPLYWGQGTQVTVSS |  |
| > 250 | VHH-H3 (VHH, Synthetic nanobody (hsd2ab library), pET29b(+) vector, pelB signal; not shown: C-terminal 6-His tag) VHH: EVQLQASGGGFVQPGGSLRLSCAASGATYWFSSMGWFRQAPGKEREFVSAISYWFDDIEYYADSVKGRFTISRDNSKNTVYLQMNSLRAEDTATYYCAMWNEQTGEEYWGQGTQVTVSS |  |
| 152 | VHH-H7 (VHH, Synthetic nanobody (hsd2ab library), pET29b(+) vector, pelB signal; not shown: C-terminal 6-His tag) VHH: EVQLQASGGGFVQPGGSLRLSCAASGYYFRGEDMGWFRQAPGKEREFVSAISDDSTATIYYADSVKGRFTISRDNSKNTVYLQMNSLRAEDTATYYCAPGWYIYLDWSESGSAYWGQGTQVTVSS |  |
| > 250 | VHH-H6 (VHH, Synthetic nanobody (hsd2ab library), pET29b(+) vector, pelB signal; not shown: C-terminal 6-His tag) VHH: EVQLQASGGGFVQPGGSLRLSCAASGFTSARYNMGWFRQAPGKEREFVSAISRHTDRQTYYADSVKGRFTISRDNSKNTVYLQMNSLRAEDTATYYCAVGMMPKQKQYWGQGTQVTVSS |  |
| > 250 | VHH-H9 (VHH, Synthetic nanobody (hsd2ab library), pET29b(+) vector, pelB signal; not shown: C-terminal 6-His tag) VHH: EVQLQASGGGFVQPGGSLRLSCAASGDTFNLTTMGWFRQAPGKEREFVSAISSSNTHIAYYADSVKGRFTISRDNSKNTVYLQMNSLRAEDTATYYCAYTYYGKNGKGMVYWGQGTQVTVSS |  |
